According to PMC10321576, “Cyclic peptides target the aromatic cage of a PHD-finger reader domain to modulate epigenetic protein function†” (Chemical Science, 2023):
Bridge positions count the residues as written; N and C are the ends. Square brackets hold non-standard residues; d marks the D form. Ends that are not written are not given here. Lys(Me3) = C[N+](C)(C)CCCC[C@H](N)C(=O)O

Legend:
[1] = target: T1, KDM7B PHD-finger (UniProt Q9UPP1-2 1-447); experiment: NMR titration; 1H-15N HSQC and 1H-NMR of isotopically labelled KDM7B PHD-finger, apo or with peptide; details: both partners purified
[2] = target: T1, KDM7B PHD-finger; experiment: BLI; association and dissociation of the cyclic peptide (2-fold serial dilution) on the protein; curve fittings with a 1:1 binding model; details: both partners purified
[3] = target: T1, KDM7B PHD-finger; experiment: BLI + AlphaScreen or HTRF; SAR of OC9 variants on KDM7B PHD-finger by affinity (BLI) and displacement (AS) assays; the sentence does not tell which gave the result; details: both partners purified
[4] = target: T1, KDM7B PHD-finger; experiment: AlphaScreen or HTRF; proximity assay of His-tagged protein and biotinylated H3(1-21)K4me3; displacement by titrated unlabelled peptide; details: both partners purified
[5] = target: T2, KDM7B (PHF8, JHDM1F) dual domain (PHD-JmjC) (UniProt Q9UPP1-2 1-447); experiment: BLI; association and dissociation of the cyclic peptide (2-fold serial dilution) on the protein; curve fittings with a 1:1 binding model; details: both partners purified
T2 construct: KDM7B (PHF8, JHDM1F), PHD-finger in tandem with the JmjC demethylase domain; methods are not in the main text; also called KDM7B dual domain

[6] = target: T1, KDM7B PHD-finger; experiment: ITC; binding curves fitted with a 1:1 binding model; details: both partners purified
[7] = target: T2, KDM7B (PHF8, JHDM1F) dual domain …; experiment: as above; details: both partners purified
[8] = target: T2, KDM7B (PHF8, JHDM1F) dual domain …; experiment: cell-based or functional assay

T1 sequence (Q9UPP1 37-483): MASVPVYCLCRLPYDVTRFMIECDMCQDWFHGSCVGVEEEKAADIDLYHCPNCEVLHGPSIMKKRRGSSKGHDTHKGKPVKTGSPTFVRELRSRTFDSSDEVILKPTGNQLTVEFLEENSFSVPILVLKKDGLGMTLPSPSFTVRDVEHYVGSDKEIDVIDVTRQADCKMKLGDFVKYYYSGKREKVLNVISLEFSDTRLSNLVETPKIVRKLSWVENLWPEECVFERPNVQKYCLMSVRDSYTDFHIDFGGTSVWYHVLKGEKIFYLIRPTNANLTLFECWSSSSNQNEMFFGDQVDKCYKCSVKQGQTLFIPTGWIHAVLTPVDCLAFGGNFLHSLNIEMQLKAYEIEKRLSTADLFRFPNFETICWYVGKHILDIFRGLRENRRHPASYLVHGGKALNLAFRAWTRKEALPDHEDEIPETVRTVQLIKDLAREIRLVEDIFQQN
T2 sequence (Q9UPP1 37-483): as above

Binder: YYLTHPYPS[dV]FRTC (ends and bridges not checked) [OC9 V10DV]
- Kd [1]: 503000 ± 1000 nM
- Kd [2]: > 10000 nM

Binder: YYLTH[trans‑4‑fluoroproline]YPSVFRTC (ends and bridges not checked) [OC9 with trans-4-fluoroproline at P6]
- fold higher affinity against the cis-fluoro variant at P6 [3]: > 10 fold

Binder: YYLTHPYPS[Lys(Me3)]FRTC (ends and bridges not checked) [OC9 V10Kme3]
- IC50 [4]: 316 nM
- Kd [2]: 533 nM

Binder: {CH2CO}-YYLTHPYPSVFRTC (thioether N-14) [OC9, de novo cyclic peptide from mRNA display]
- IC50 [4]: 32 nM
- Kd [2]: 4 nM
- dissociative half-life t1/2 [2]: 8.1 min
- Kd [5]: 6 nM
- dissociative half-life t1/2 [5]: 2.8 min
- Kd [6]: 12 nM
- Kd [7]: 11 nM
- IC50 of inhibition of KDM7B demethylation of H3(1–21)K4me3K9me2, MALDI-TOF MS based assay [8]: 1190 nM
- IC50 of inhibition of KDM7B demethylation of H3(1–21)K9me2, MALDI-TOF MS based assay [8]: 510 nM
